Experimental data reported in the Immune Epitope Database (IEDB).

Key:
HLA-A*02:01 [1] = assay: IEDB peptide-MHC binding, cellular MHC/competitive/fluorescence; ≥ and ≤ were set here for values at or beyond the usual limits of such assays
HLA-A*02:03 = assay: IEDB peptide-MHC binding, purified MHC/competitive/radioactivity; ≥ and ≤ were set here for values at or beyond the usual limits of such assays
HLA-A*02:02 = assay: as above
HLA-A*68:02 = assay: as above
HLA-A*02:06 = assay: as above
HLA-A*02:01 [2] = assay: as above
[3] = source organism: Vaccinia virus WR
[4] = source organism: Mammarenavirus choriomeningitidis
[5] = source organism: Influenza A virus
[6] = source organism: Hepacivirus hominis

| Sequence | IC50 (HLA-A*02:01 [1]; [3]) [µM] | IC50 (HLA-A*02:03; [3]) [µM] | IC50 (HLA-A*02:02; [3]) [µM] | IC50 (HLA-A*68:02; [3]) [µM] | IC50 (HLA-A*02:06; [3]) [µM] | further results |
| --- | --- | --- | --- | --- | --- | --- |
| ILKDPRIASI | 5.03 | 1.03 | 3.16 | 4.52 | 4 |  |
| ALMDCIIFES |  |  |  |  |  | IC50 (HLA-A*02:01 [1]; [4]): 6.23 µM; IC50 (HLA-A*02:03; [4]): 0.016 µM; IC50 (HLA-A*02:02; [4]): 0.0021 µM; IC50 (HLA-A*68:02; [4]): 0.507 µM; IC50 (HLA-A*02:06; [4]): 0.013 µM |
| TTNNLLEQL | 40.6 | 1.42 | 0.122 | 0.048 | 3.04 |  |
| LVFNSISARA | 15.9 | 0.254 | 1.27 | 0.168 | 0.702 |  |
| SIMSMMNIT | 7.15 | 0.681 | 4.97 | 2.37 | 1.76 |  |
| LITLILSNKL | 7.66 | 0.293 | 0.225 | 1.49 | 0.633 |  |
| LTSVDIETAI | 6.73 | 2.15 | 0.509 | 0.221 | 3.13 |  |
| ATAGLTHMMI |  |  |  |  |  | IC50 (HLA-A*02:01 [1]; [5]): 12.1 µM; IC50 (HLA-A*02:03; [5]): 1.06 µM; IC50 (HLA-A*02:02; [5]): 0.636 µM; IC50 (HLA-A*68:02; [5]): 0.138 µM; IC50 (HLA-A*02:06; [5]): 2.2 µM |
| IVFGIYKDNL | 5.46 | 0.792 | 0.187 | 0.628 | 0.048 |  |
| ITRLEVIGLT | 6.47 | 0.219 | 2.21 | 1.18 | 0.967 |  |
| ETMYLTMKAI | 6.58 | 0.025 | 1.32 | 0.004 | 3.58 |  |
| SIRCVKYLL | 7.82 | 0.056 | 0.107 | 0.244 | 2.88 |  |
| YTFAISYCRA | 10.3 | 0.038 | 0.325 | 0.004 | 0.037 |  |
| NITTLLNETA | 5.68 | 0.106 | 0.218 | 1.72 | 1.13 |  |
| ELIDVLKTRL | 5.43 | 0.118 | 0.262 | 1.42 | 1.99 |  |
| ELAYYNSCML | 12.5 | 0.151 | 1.87 | 0.65 | 3.57 |  |
| KTPDYPLIDI | 5.55 | 0.249 | 1.12 | 1.25 | 0.725 |  |

| Sequence | IC50 (HLA-A*02:01 [1]; [3]) [µM] | IC50 (HLA-A*02:03; [3]) [µM] | IC50 (HLA-A*02:02; [3]) [µM] | IC50 (HLA-A*68:02; [3]) [µM] | IC50 (HLA-A*02:06; [3]) [µM] | further results |
| --- | --- | --- | --- | --- | --- | --- |
| SAEVERLMEL | 7.91 | 2.5 | 1.28 | 2.64 | 1.25 |  |
| LAISAVYFKA |  | 0.363 | 1.43 | 0.802 | 0.659 | IC50 (HLA-A*02:01 [2]; [3]): 0.77 µM |
| HVLLPFYETL |  | 0.213 | 0.029 | 2.27 | 0.115 | IC50 (HLA-A*02:01 [2]; [3]): 0.017 µM |
| ILEYLYIMRV |  | 0.083 | 0.074 | 1.35 | 0.134 | IC50 (HLA-A*02:01 [2]; [3]): 0.03 µM |
| ILMTHFFSIL |  |  |  |  |  | IC50 (HLA-A*02:03; [6]): 0.069 µM; IC50 (HLA-A*02:02; [6]): 0.035 µM; IC50 (HLA-A*68:02; [6]): 3.97 µM; IC50 (HLA-A*02:06; [6]): 0.101 µM; IC50 (HLA-A*02:01 [2]; [6]): 0.044 µM |
| SVIFYFISI |  | 0.075 | 0.155 | 0.0017 | 0.00017 | IC50 (HLA-A*02:01 [2]; [3]): 0.079 µM |
| IVNTTYDFL |  | 4.68 | 1.88 | 0.75 | 2.99 | IC50 (HLA-A*02:01 [2]; [3]): 1.05 µM |
| KTANNYETI |  | 0.038 | 0.037 | 1.32 | 0.329 | IC50 (HLA-A*02:01 [2]; [3]): 2.25 µM |
| LLPLTSLVIT |  | 1.32 | 0.999 | 1.49 | 1.61 | IC50 (HLA-A*02:01 [2]; [3]): 1.17 µM |
| KVIKLVKSL |  | 0.043 | 0.578 | 0.366 | 0.26 | IC50 (HLA-A*02:01 [2]; [3]): 0.395 µM |
| TLDAANHSI |  |  |  |  |  | IC50 (HLA-A*02:03; source organism: SARS-CoV1): 0.283 µM; IC50 (HLA-A*02:02; source organism: SARS-CoV1): 0.092 µM; IC50 (HLA-A*68:02; source organism: SARS-CoV1): 1.02 µM; IC50 (HLA-A*02:06; source organism: SARS-CoV1): 0.029 µM; IC50 (HLA-A*02:01 [2]; source organism: SARS-CoV1): 0.0096 µM |
| IAVITETIPI |  | 0.032 | 0.515 | 0.154 | 0.001 | IC50 (HLA-A*02:01 [2]; [3]): 0.053 µM |
| MILMTHFFSI |  |  |  |  |  | IC50 (HLA-A*02:03; [6]): 1.12 µM; IC50 (HLA-A*02:02; [6]): 0.42 µM; IC50 (HLA-A*68:02; [6]): 0.883 µM; IC50 (HLA-A*02:06; [6]): 0.307 µM; IC50 (HLA-A*02:01 [2]; [6]): 0.268 µM |
| FLFLAWIML |  |  |  |  |  | IC50 (HLA-A*02:03; source organism: SARS-CoV1): 0.038 µM; IC50 (HLA-A*02:02; source organism: SARS-CoV1): 0.0018 µM; IC50 (HLA-A*68:02; source organism: SARS-CoV1): 1.34 µM; IC50 (HLA-A*02:06; source organism: SARS-CoV1): 0.037 µM; IC50 (HLA-A*02:01 [2]; source organism: SARS-CoV1): 0.0064 µM |
| FVDTMSIYI |  | 0.37 | 0.021 | 0.465 | 0.016 | IC50 (HLA-A*02:01 [2]; [3]): 0.0096 µM |
| YLSSVLLAL |  |  |  |  |  | IC50 (HLA-A*02:03; source organism: SARS-CoV1): 0.00031 µM; IC50 (HLA-A*02:02; source organism: SARS-CoV1): 0.00014 µM; IC50 (HLA-A*68:02; source organism: SARS-CoV1): 0.01 µM; IC50 (HLA-A*02:06; source organism: SARS-CoV1): 0.0082 µM; IC50 (HLA-A*02:01 [2]; source organism: SARS-CoV1): 0.00055 µM |
| KIILFLTLI |  |  |  |  |  | IC50 (HLA-A*02:03; source organism: SARS-CoV1): 0.0049 µM; IC50 (HLA-A*02:02; source organism: SARS-CoV1): 0.068 µM; IC50 (HLA-A*68:02; source organism: SARS-CoV1): 0.378 µM; IC50 (HLA-A*02:06; source organism: SARS-CoV1): 0.024 µM; IC50 (HLA-A*02:01 [2]; source organism: SARS-CoV1): 0.141 µM |
